Data set [1] concerns 1,5-AG dehydrogenase (Ver. 0). Put plainly: Substrate specificity of parent strain-derived 1,5-AG dehydrogenase. It is filed as biochemical, Pseudomonas sp. NK-85001. The conditions noted are these: activity for 1,5-AG as 100%; Ver. 0, 40%-saturated ammonium sulfate precipitate fraction. On the procedure:
(§1) The components other than the crude enzyme solution are mixed and kept at 37° C. for 10 minutes. Then, the crude enzyme solution is added to the reaction solution to initiate reaction. Decrease in absorbance at 600 nm for 1 minute with the temperature kept at 37° C. is determined.
A precipitate fraction of 40%-saturated ammonium sulfate was collected by centrifugation and dissolved in a 50 mM sodium phosphate buffer, pH 7.5.

Data set [2] can be described thus: 1,5-AG dehydrogenase activity determination of crude enzyme solution (L-sorbose, DCIP, 1-m-PMS, decrease in absorbance at 600 nm). The data set is classed as biochemical. Particulars: crude enzyme solution, L-sorbose as substrate, 37° C. On the procedure:
The E. coli JM109 strains transformed with the pTrc-PS15DH vectors confirmed in the paragraph (I) to have the insert fragment were inoculated to 3 mL of an LB medium containing 100 μg/mL ampicillin and cultured at 28° C. for 14 hours. Of this culture solution, a 0.2 mL aliquot was inoculated to 10 mL of an LB medium (containing 100 μg/mL ampicillin). Approximately 3 hours later, the rise of OD600 of the culture solution to 0.4 to 0.7 was confirmed, and 1,5-AG dehydrogenase expression in E. coli was then induced by the addition of 0.1 M IPTG (final concentration: 0.1 mM) to the medium. This culture solution was further cultured overnight at 28° C. and centrifuged at 10000×g for 5 minutes to precipitate cells. The supernatant was removed, and the pellet was then washed twice with a 0.85% aqueous NaCl solution. Cells were precipitated by centrifugation. Then, the microbial cells were suspended in 1 mL of a 50 mM sodium phosphate buffer, pH 7.5. Triton X-100 was added thereto at a concentration of 0.25%, and the microbial cells were disrupted using a bead impact-type cell disrupter MINI-BEAD BEATER (30 seconds×4, manufactured by Central Scientific Commerce, Inc.) while cooled in ice. After centrifugation at 20000×g for 10 minutes, the supernatant was examined as a crude enzyme solution for its 1,5-AG dehydrogenase activity. The composition of the reaction solution is as described below. Since the 1,5-AG dehydrogenase also reacts with L-sorbose as its substrate, L-sorbose was used for convenience instead of 1,5-AG in the enzymatic activity determination.
Composition of Reaction Solution:
as §1
The enzymatic activity can be determined according to the following equation: Enzymatic activity (U/mL)=(Δ600/min×0.6 (mL)×dilution ratio of crude enzyme solution)/(16.3×0.01 (mL)).
(§2) The E. coli JM109 containing the gene encoding each thermostable 1,5-AG dehydrogenase obtained in the paragraphs to [4] of EXAMPLE 2 was transplanted to 10 mL of an LB liquid medium containing 50 μg/mL ampicillin and 0.1 mM IPTG and shake-cultured at 30° C. for 16 hours. 10 mL of the shake-culture solution was centrifuged at 10000 rpm for 5 minutes. The culture supernatant was removed, and the pellet was then washed twice with a 0.85% aqueous NaCl solution. These microbial cells were suspended in 1 mL of a 50 mM sodium phosphate buffer (pH 7.5) containing 0.25% Triton X-100. The microbial cells were disrupted using a bead impact-type cell disrupter MINI-BEAD BEATER (30 seconds×4, manufactured by Central Scientific Commerce, Inc.) while cooled in ice. After centrifugation at 15000 rpm for 10 minutes, the supernatant was used as a crude enzyme solution. When the crude enzyme solution was heat-treated, the treatment was performed for 10 minutes in a water bath of 45° C., 50° C., 55° C. or 60° C.
(§3) The enzymatic activity of the 1,5-AG dehydrogenase was calculated by measurement by the same approach as that described in the paragraph (J) of EXAMPLE 1.
(§4) A specific activity that represents the enzymatic activity of the 1,5-AG dehydrogenase per mg of the crude enzyme solution was calculated according to the following equation: Specific activity (U/mg)=enzymatic activity (U/mL)/protein concentration of crude enzyme solution (mg/mL). Moreover, the rate of residual activity was calculated according to the following equation: Rate of residual activity (%)=(specific activity of crude enzyme solution after heat treatment/specific activity of crude enzyme solution before heat treatment)×100.
The 1,5-AG dehydrogenase activity was determined based on the method described in EXAMPLE 1, and its specific activity was determined according to the equation described in EXAMPLE 3.

A short description of data set [3]: Stability of thermostable 1,5-AG dehydrogenase at heat treatment temperature (rate of residual activity). The data set is classed as physicochemical. Particulars: crude enzyme solution, water bath 45° C., 10 minutes. As to the method: as §2, §3, §4
A short description of data set [4]: Primary screening of variant gene library after heat treatment of microbial cells (DCIP decolorization with 1,5-AG). Particulars: microbial cells treated at 60° C. for 20 minutes; blue color of DCIP decolorized. It is filed as biochemical. On the procedure: Approximately 10100 colonies of the variant gene library were randomly picked up using a colony picker (PM-2s, manufactured by Microtec Co., Ltd.) and subjected to primary screening In the primary screening, a 1.2-mL 96-well square deep well plate (manufactured by NALGE NUNC INTERNATIONAL MK.) was used. The colonies were transplanted to 500 μL of an LB liquid medium containing 50 μg/mL ampicillin and cultured (28° C., 900 rpm) overnight in a 96-well square plate shaker (TITRAMAX 100, manufactured by HEIDOLPH). The 96-well square deep well plate was centrifuged at 2000 rpm for 10 minutes to separate microbial cells, which were then treated at −80° C. for 1 hour. The microbial cells were thawed and then treated at 60° C. for 20 minutes. Active variant enzymes were picked up by suspending the microbial cells thus treated at 60° C. by the addition of 200 μL of a 0.1 M potassium phosphate buffer (pH 7.0) containing 0.5% Triton X-100, 30 μL of 6 mM 2,6-dichlorophenolindophenol (DCIP) and 5 μL of 50 mg/mL 1,5-AG. The blue color of DCIP is decolorized for colonies having the enzymatic activity. As a result, it was observed that the blue color of DCIP was decolorized for colonies carrying a 1,5-AG dehydrogenase Ver. […] 0.

As to `O=C[C@H](O)[C@@H](O)[C@H](O)CO` [Xylose], the Relative activity in data set [1] is given as 0%.

B1: Ver. 1.0: thermostable 1,5-AG dehydrogenase, protein 21) of b101; net vs SEQ ID NO: 4: P50Q (protein)
chain: MEFGGQPDIVIIGSGIGGASIAAGLSASGADILILEAGESLPDRPENRDQHAIFQRGFFRPKEFWYETDGTPFNPGNYYNVGGNSKFYGAVLVRYRREDFEELAHLEGVSPAWPFAYDELEPWYCKAEELFQVRGELGDDPTEPYHSKPYSYPAIRDESPIADLRARLKKAGLHPASLPLGVDIERWLAKAKTPWDAHPNSNDGKMDAETCPLALALKHPNVGLETSARVTKLETGPDGKTIVAVHYVKNGEALVLRPKLVILSAGAVQSAALLLRSGLANRSDQVGRNFMNHNASAVIGFDPRYRNDSVYQKTFGFNDYYLSDGAGGPPLGNVQLLGRVSGAILKSNMRQVPEWFLNRIAGHTIDFYAMSEDLPSPESRVSVDGDRIILHWVRSNWKAHLMLVDKLKSALRAAGFPVVLSRAFDRRTPSHQCGTVRIGDNPATAPLDPYCRAYDHPNLYVVDASFLPTSAAVNPALTIAAQALRVADHLNREVLA
modifications: Pseudomonas sp. NK-85001
With B1, the Specific activity in data set [2] is reported as 1.7 U/mg. For the same molecule, in data set [3], the “Rate of residual activity after 10-minute treatment at 45° C.” value is 8.3%. Moreover, the “Thermostability compared with 1,5-AG dehydrogenase Ver. 0” value in data set [4] is reported as “improved thermostability”.
